Assays:
[1] = target: hACE2-Fc (human) (UniProt Q9BYF1); test: BLI; ACE2-Fc (10 ug/ml in kinetic buffer) captured on anti-human IgG Fc capture (AHC) biosensors, S2P glycoproteins as analyte; 30°C; association 300 s, dissociation 300 s; 1:1 binding model
[2] = target: S2P.OmiBA1-1208.H8 (SARS CoV-2 (Omicron BA.1)); test: SEC

| Substance | Kd [1] [nM] | Req [1] [nm] | koff [1] [s⁻¹] | kon [1] [M⁻¹ s⁻¹] | percent dissociated to a lower-order form after freeze-thaw [2] [%] |
| --- | --- | --- | --- | --- | --- |
| S2P.OmiBA1-FHA (domain or fragment) | 0.641 | 0.35 | 0.00027 | 420000 |  |
| S2P.OmiBA1-1208.H8 (domain or fragment) |  |  |  |  | 15 |
